Data on one molecule can be found in US20240287161A1 (NATIONAL UNIVERSITY CORPORATION TOTTORI UNIVERSITY, published 2024).

Experiment [1] has as its target T1, HCoV-OC43 trimeric S protein (amino acids 12-1299) with T4 foldon, histidine tag and strep-tag (HCoV-OC43, UniProt P36334 12-1291).
T1 chain: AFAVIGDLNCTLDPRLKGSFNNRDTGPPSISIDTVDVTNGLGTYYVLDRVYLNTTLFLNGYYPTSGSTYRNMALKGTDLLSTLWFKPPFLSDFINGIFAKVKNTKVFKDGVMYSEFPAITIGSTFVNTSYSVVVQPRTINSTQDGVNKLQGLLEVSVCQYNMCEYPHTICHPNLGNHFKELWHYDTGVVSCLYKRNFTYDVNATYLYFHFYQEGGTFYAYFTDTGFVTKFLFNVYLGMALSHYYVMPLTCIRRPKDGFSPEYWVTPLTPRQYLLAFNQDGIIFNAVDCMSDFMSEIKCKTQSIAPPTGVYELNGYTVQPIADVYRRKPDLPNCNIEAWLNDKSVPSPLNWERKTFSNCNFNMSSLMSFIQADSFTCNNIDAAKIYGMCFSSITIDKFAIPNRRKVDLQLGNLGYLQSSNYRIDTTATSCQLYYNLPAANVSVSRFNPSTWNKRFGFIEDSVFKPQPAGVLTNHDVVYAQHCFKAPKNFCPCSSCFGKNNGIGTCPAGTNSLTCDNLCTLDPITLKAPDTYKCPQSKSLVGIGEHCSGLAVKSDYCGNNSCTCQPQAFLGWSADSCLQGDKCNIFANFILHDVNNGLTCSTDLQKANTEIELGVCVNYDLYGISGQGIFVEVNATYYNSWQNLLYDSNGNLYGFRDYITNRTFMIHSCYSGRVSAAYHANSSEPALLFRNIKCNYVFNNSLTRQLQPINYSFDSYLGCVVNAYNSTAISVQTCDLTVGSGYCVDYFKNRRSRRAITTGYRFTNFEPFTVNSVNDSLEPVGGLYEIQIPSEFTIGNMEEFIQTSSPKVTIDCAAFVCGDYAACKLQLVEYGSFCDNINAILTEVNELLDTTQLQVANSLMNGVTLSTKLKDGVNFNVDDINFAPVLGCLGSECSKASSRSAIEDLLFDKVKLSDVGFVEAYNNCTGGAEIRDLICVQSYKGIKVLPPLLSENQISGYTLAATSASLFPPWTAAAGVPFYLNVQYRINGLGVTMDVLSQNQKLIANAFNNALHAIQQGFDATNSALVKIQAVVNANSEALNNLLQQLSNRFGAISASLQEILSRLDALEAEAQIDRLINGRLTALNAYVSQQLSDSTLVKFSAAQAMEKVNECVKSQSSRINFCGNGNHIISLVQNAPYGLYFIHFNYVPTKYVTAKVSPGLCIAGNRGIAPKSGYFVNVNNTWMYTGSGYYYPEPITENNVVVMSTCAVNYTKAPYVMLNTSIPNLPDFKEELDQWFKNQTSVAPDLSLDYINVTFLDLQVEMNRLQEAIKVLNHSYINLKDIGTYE
As to the kind of experiment: ELISA on coated S-trimeric antigen, anti-human IgG-HRP [Human IgG3, NT-193].

Experiment [2] concerns the target T2, HCoV-229E trimeric S protein (amino acids 12-1109) with T4 foldon, histidine tag and strep-tag (HCoV-229E, UniProt P15423 12-1112).
T2 chain: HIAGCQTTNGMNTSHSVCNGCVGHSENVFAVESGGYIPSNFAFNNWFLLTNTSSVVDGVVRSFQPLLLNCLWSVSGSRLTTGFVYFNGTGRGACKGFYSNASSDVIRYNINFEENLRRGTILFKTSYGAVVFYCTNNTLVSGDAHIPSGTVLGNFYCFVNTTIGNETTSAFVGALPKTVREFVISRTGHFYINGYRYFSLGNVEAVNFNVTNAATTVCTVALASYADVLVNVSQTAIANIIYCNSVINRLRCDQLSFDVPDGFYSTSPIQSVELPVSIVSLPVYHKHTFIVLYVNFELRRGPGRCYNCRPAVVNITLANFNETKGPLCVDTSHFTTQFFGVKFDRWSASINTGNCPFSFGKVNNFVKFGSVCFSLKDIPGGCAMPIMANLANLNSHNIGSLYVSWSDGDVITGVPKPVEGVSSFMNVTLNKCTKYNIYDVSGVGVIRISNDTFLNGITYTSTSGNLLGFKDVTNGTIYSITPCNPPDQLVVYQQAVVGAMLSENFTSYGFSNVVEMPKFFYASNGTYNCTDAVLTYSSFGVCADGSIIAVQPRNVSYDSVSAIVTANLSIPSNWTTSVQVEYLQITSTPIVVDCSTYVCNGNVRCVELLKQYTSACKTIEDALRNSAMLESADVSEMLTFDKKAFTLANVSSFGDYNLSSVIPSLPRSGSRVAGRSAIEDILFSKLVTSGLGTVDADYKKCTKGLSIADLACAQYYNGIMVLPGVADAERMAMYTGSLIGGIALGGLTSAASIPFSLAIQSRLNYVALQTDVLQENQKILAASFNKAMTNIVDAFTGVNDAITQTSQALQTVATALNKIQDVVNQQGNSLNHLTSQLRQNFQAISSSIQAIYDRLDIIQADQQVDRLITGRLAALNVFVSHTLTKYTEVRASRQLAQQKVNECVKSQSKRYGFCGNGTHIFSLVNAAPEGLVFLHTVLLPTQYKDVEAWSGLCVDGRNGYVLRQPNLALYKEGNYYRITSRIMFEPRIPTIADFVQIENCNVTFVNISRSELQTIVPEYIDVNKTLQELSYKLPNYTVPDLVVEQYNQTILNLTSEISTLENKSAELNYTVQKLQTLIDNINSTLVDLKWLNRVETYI
The description is as above.

B1: NT-193, human IgG3 subclass (antibody, V domains shown)
VH: EVQLQQWGAGLLKPSETLSLTCAVYGGSFSGYYWSWIRQPPGKGLEWIGEINHSGSTNYNPSLKSRVTISVDTSKNQFSLKLSSVTAADTAVYYCARGWDLDYYYGMDVWGQGTTVTVSS
VL: DIRMTQSPSAMSASVGDRVTVTCRASQGIGNYLAWFQLKPGKVPKRLIYAASSLQSGVPARFSGGGSGTEFTLTISSLQPEDFATYYCLQHGFLPWTFGQGTKLEIK
Turning to B1, the binding result in experiment [1] and in experiment [2] was “no binding (tested: 1000 ng/ml)” in each case.
